assay: soluble on expression in E. coli; label from the status in PepcDB or PDB records

Row | Sequence | soluble on expression in E. coli
1 | MGSDKIHHHHHHMSAPTITTLGEFLQAGQAEYKIFDIGRCLTELSQEEFAAIEQQQRPYPYPIARQAQLAILFQHKQHDQQPFIWFLQFPLDERGLLNIAARNQYLEYVVNALGHEITGEMTEEQQKQLQQNPYLLTPNEQQRAALHARVQRQQKLSPSIHFETAEAYLKQPESGIDWQQMGLQGLHDCAARLEQLPELSKAIATHFSHYPSAVRQPLAVALEQQSLTPPVRDALLQNLESSNAQLCTDSLRALASASAHPRVKKAVNKLVPHANADQLVVIAARLWPVLCEEQNLLRYLDAIAELDNSLFDALFQDIIALPDIRPLLLSIIAQQKQSAAVNEALNRLKQQTQGS | not soluble
2 | MAHHHHHHMGTLEAQTQGPGSMPIKSSLLIVVACALLDQDNRVLLTQRPEGKSLAGLWEFPGGKVEQGETPEASLIRELEEELGVHVQADNLFPLTFASHGYETFHLLMPLYFCSHYKGVAQGREGQNLKWIFINDLDKYPMPEADKPLVQVLKNFFI | soluble
3 | MGSDKIHHHHHHMSSTKIIATFNQSGGAAKTTITHNLGYHLAKKHRVLLVDMDPQASLTAFMGLGEVKLQTEQTIYGAIAEETPLYIWEKPIHGMHLVPTNIQLAGTEQKIFHDLTIDNRQRLKFVLSNVLDQYDYILIDCPPSLGILSIMSLVAASHVIIPVETQYKCYLGTNQLLETIARLKKGGHQKLQIACIIPTKYDNRNLQDTGILEEIKQQVEGRIHVTAPIPKSTAFPDATQAHLPLALHKKNHPAVSILEEITKYITQLSVTQGQSH | not soluble
4 | NETEATLPVFTLEQVAEHHSPDDCWMAIHGKVYDLTPYVPNHPGPAGMMLVWCGQESTEAWETKSYGEPHSSLAARLLQRYLIGTLEEIT | soluble
5 | MGSDKIHHHHHHMKKLVATAPRVAELVEYHDREVVEDEVKIKVQFASPKHGTEVVDFRGISPFIDEEFSPEWNLFVSRETNSARGIVFGEFQLGNMVVGEVVECGSKVTEYALGDIVCSYGPIMETVIVKAVDNYKLRKLPKGANWKNAVCYDPAQFAMSGVRDAHVRAGDYVVVVGLGAIGQIAIQLAKKAGASVVIGVDPLSHRREIAEKHGADATFDPITTDVGLEVKRLTGKLGADSIIETSGNAAALQAALRGIAYGGTISYVAFAKPFPEGFNLGREAHFNNAKIVFSRAASEPNPDYPRWDRKRIEETCWELLMNGYLDCTDIIDPVVPFADSAESYMKYVDQQPDLSIKMGITL | not soluble
6 | MGSDKIHHHHHHMIRGLYIAVSAMITNQQKQNVVVNNLANMDTNGYKSKQLLTKSFDELKLEGYNNYANGTKQKQIIGDISPGISMDETITNFNQGPIKTTDNKMDVAIQGKGFFLVSDAAGNQFYTRNGNFRTDNQGDLITSEGYYVLGTNTATGAVGHINVGNQKFEVAKDNTISLDGNAMYKFNIVDFNNYNNLKKEGDNLYSGGGAMKVNNALTIQSAIESSNVDMVSEINNMMTISREYEANQKIIQAMDSKLAKIASEIGSVR | not soluble
7 | MALPRITQKEMTEREQRELKTLLDRARIAHGRPLTNSETNSVKKEYIDKLMALREAEAKKARQLKKKQAYKPDTEASFSWSANTPTRGRR | not soluble
8 | MDSDHNHINGDLAHGFENMVCVRCNDGFSMQDQMVNSSGQVWHSECFVCAQCFEPFPDGIYFEYEGRKYCEHDFHVLFSPCCGKCNEFIVGRVIKAMNASWHPGCFCCEICNKQLADVGFLRNAGRALCRECNEREKAAGHGRYVCHKCHAMIDDGQHIKFRGDSFHPYHFKCKRCNNELTTASREVNGELYCLRCHDTMGIPICGACHRPIEERVIAALGKHWHVEHFVCSVCEKPFLGHRHYERKGLPYCEQHFHKLFGNLCFKCGDPCCGEVFQALQKTWCVKCFSCSFCDKKLDQKTKFYEFDMKPTCKRCYDRFPTELKKRISESLKDRDVENQRRSMSPGPK | not soluble
9 | MSLSSGRTVPTRSHGLGKEGVSTTGASQVEFGDPELTARINDAMVQVEELLHTELSSGEDFLVDIVMHLTRAGGKRFRPMFALLASEFGEKPLSENVIKAAVVVEITHLATLYHDDVMDEASMRRGVPSANARWDNSVAILAGDILLAHASGLMSQLGTDTVAHFAETFGELVTGQMRETVGPRDTDPIEHYTNVIREKTGVLIASAGYLGAMHAGAAPEHIDALKNFGAAVGMIFQIVDDIIDIFSETHESGKTPGTDLREGVFTLPVLYALREDTPVGAELRDILTGPLEDDETVNHVLELLSQSGGRQAALDEVYRYMDIANAELDRLPDSTVKEALRNLATFTVKRVGEGHHHHHH | soluble
10 | MGSDKIHHHHHHMSNQYHNFNSQIESHILFYGHQKCKPDEYFDGTNLRKNDILYYVLDGKGTFNSSGHHVAKLAKGDLFLVPRSRTCYFEADHDNPWEYFWIGLSGAGTNEMIKASNLPNKNFLRQIQKTEFFETLKELYSTLNEDSSLLNNVKIASLTYQLFYHLIDEFPNHPSIRKTPKIDQYQIAIDYLNKNYTDPTCNIVELCNRLGVSRSFLYSLFRKNTKISPQKYLMQLRMEAAKKELLNTTHNLKEIARKVGYGDEFTFSKAFKRYSGVSPNVFRGK | not soluble
11 | MGSDKIHHHHHHMPAFIKKELIMKLQGAGLGYRRNLAEDFLQLPSNNAIQFIEVAPENWSKMGGMARYQFDQAAERFPLAVHGLSLSLGGQAPLDRELLRNTKALINQYNSSFFSEHLSYCECEGHLYDLLPMPFTEEAVKHVAQRIRDVQDFLGLQISLENTSYYLHSPTSTMNEVEFLNAIAQEADCGIHLDVNNIYVNGVNHGLLDPYIFLDQVDVKRVNYIHIAGHDEEHSAAQVVENSANESFNKVKGAYRHLPELLIDTHGEAVKGTVWDLLEYAYQRLPTIPPTLLERDFNFPPFAELYAEVEHIAQLQQKYAHTEVMSYAA | not soluble
12 | GPLETDLVAVWDVALSDGVHKIEFEHGTTSGKRVVYVDGKEEIRKEWMFKLVGKETFYVGAAKTKATINIDAISGFAYEYTLEINGKSLKKYMEDRSKTTNTWVLHMDGENFRIVLEKDAMDVWCNGKKLETAGEFVDDGTETHFSIGNHDCYIKAVSSGKRKEGIIHTLIVDNREIPEIAS | soluble
13 | GMSQTTVVNGVNVDQLMATIEQIKAKPEIAQFKFRATNQWMGGTHNQATIKDFYGACAEDDTRKPMVFDLDEPPVLLGENRGANPVEYLLVALSGCLTTSLVAHAAARGIALRGVKSRYEGDIDLRGFLGLSEEVPVGYREIRVFFSIDADLTDGQKEELIRMAQKYSPVYNTVAKPVPVAVLLDRG | soluble
14 | MSLTQPFQLPHFYMPYPARLNPHLDEARAHSTRWARGMGMLEGSGIWEQSDLDAHDYGLLCAYTHPDCDGPALSLITDWYVWVFFFDDHFLETFKRTQDREGGKAYLDRLPLFMPLDLSAPVPEPENPVEAGLADLWARTVPAMSADWRKRFAVSTEHLLNESLWELSNINEGRIANPVEYIEMRRKVGGAPWSAGLVEYATAEVPAAVAGSRPLRVLMETFSDGVHLRNDLFSYQREVEEEGELSNGVLVLETFFGCTTQEAAETVNDILTSRLHQFEHTALTEVPALALEKGLTPPEVAAVAAYARGLQDWQSGGHEWHLRSSRYMNEEGHHHHHH | soluble
15 | SDTRQLPNRPVEVTIMGLGCAQMGNLYRVTPYEESKGAFDKAWESGMRYFDTAPFYGYTRSERRLGTMVTEHDRGDYTLSTKVGRVMVPDETVGPEEDAYIAPLPFRPVYDYSYDGILRSFEASQQRLGILKPDILYVHDIGSHTHGEKHQHYWEQLTTGGGFRALGKLRDEGSTGAVGLGVNEWEIINDAMDVFDIDVAMLAGRYTLLEQQSLAFMNRCAESGVAIVVAGAFNSGILAGNRKFNYADAPADILKRVDALHNVCEELGVSLQAAALQFPLAHPASVTVVSGARNAQQLASNIEWFEQSIPDEFWSELHK | not soluble
16 | MAISFDYSNALPFMQENELDYLSEFVKAAHHMLHERKGPGSDFLGWVDWPIRYDKNEFSRIKQAAERIRNHSDALVVIGIGGSYLGARAAIEALSHTFHNQMNDTTQIYFAGQNISSTYISHLLDVLEGKDLSINVISKSGTTTEPAIAFRIFRDYMEKKYGKEEARKRIYVTTDRTKGALKKLADQEGYETFVIPDNIGGRYSVLTAVGLLPIAVAGLNIDRMMEGAASAYHKYNNPDLLTNESYQYAAVRNILYRKGKAIELLVNYEPSLHYVSEWWKQLFGESEGKDQKGLFPASVDFTTDLHSMGQYVQEGRRNLIETVLHVKKPQIELTIQEDPENIDGLNFLAGKTLDEVNKKAFQGTLLAHVDGGVPNLIVELDEMNEYTFGEMVYFFEKACGISGHLLGVNPFDQPGVEAYKKNMFALLGKPGFEDEKAALMKRLSK | soluble
17 | MQQNIRIQKNQYDTATHPTASSTTWKYVTYDETSETFGMSEQVADPCNHCPKPRNYNSECKDEDVEKHFEKVMPCVHTYTIIYGNVHHLPNHPIIRNLRHNHY | soluble
18 | GMLAETDEYMAGGKRPARVYRVVNGIAVLPVTGTLVHRLGGMRPFSGMTGYDGIVACLQQAMADSQVRGILLDIDSPGGQAAGAFDCADMIYRLRQQKPVWALCNDTACSAAMLLASACSRRLVTQTSRIGSIGVMMSHVSYAGHLAQAGVDITLIYAGAHKVDGNQFEALPAEVRQDMQQRIDAARRMFAEKVAMYTGLSVDAVTGTEAAVFEGQSGIEAGLADELINASD | not soluble
19 | MLLEPLKQLKQADARLNMTQGVLEGVVGEELGVLPGMDSIFSMLELERLVGFFRQATRKNHKGKPFDVIIYDGISTEETLRMIGLSSKTRLYAKYLRSLAEKTDLGRLTSPSIMRFVDESMNINSNKSPFDGMTSPAMWDTLERFLETGASAWRDPERFRSFLVMDPNNPMSVKAALRYWGCTVQAGSHVSGAFAISSSHLTSQIPKADFVPLPFASASVPFTITGLDWDKILLDQANSSIRELLSETVSHGTSLTQTVMFDTAKKLVTLFMPGFEKSEIKLYQYRGGSELLIEAGDQRRVIHLPSQIQGKVGGAKFVDRSLIVTMR | soluble
20 | MELIQDTSRPPLEYVKGVPLIKYFAEALGPLQSFQARPDDLLINTYPKSGTTWVSQILDMIYQGGDLEKCNRAPIYVRVPFLEVNDPGEPSGLETLKDTPPPRLIKSHLPLALLPQTLLDQKVKVVYVARNPKDVAVSYYHFHRMEKAHPEPGTWDSFLEKFMAGEVSYGSWYQHVQEWWELSRTHPVLYLFYEDMKENPKREIQKILEFVGRSLPEETMDFMVQHTSFKEMKKNPMTNYTTVPQELMDHSISPFMRKGMAGDWKTTFTVAQNERFDADYAEKMAGCSLSFRSEL | soluble
21 | MAVESRVTQEEIKKEPEKPIDREKTCPLLLRVFTTNNGRHHRMDEFSRGNVPSSELQIYTWMDATLKELTSLVKEVYPEARKKGTHFNFAIVFTDVKRPGYRVKEIGSTMSGRKGTDDSMTLQSQKFQIGDYLDIAITPPNRAPPTSGRMRPY | soluble
22 | MLSLKLVSQLFKQSLASGNMAIVNTAGLKYFAPPIKYQNVEQPERPKLRVIERQPQLPPNIRPPKMQKRLRYMRGPEMVHNTLLHKQYAIVATGGGRLRWGHYEMMRLTIGRKMNVNTMFATWRVPAPWQPITKKGQGQRMGGGKGAIDHYVTPIKAGRVIVEIAGKCEFVEVKQFLQQVANQLPFQATVVSQEMLDEQRVAEEEQTRQNENPFTMKYVIQNNLSGCHRWLSPVDHKWFGKHLLEHHHHHH | not soluble
23 | MKLIIAVVQDKDSNRLSEALVKANYRATKLASTGGFLKAGNTTFLIGTEDEHVEEVMSIIKDNCKSRDQLVAPISPMGGNADSYVPYPVEVQVGGATVFVLPVEQFEQY | not soluble
24 | MLRIDCGGQDTVTKIVAERLMMKTDGRLARMLHVLVHMGLLGGRETSERIAQMLNTNPVVVRRTLGALRESGIVVSEGGRGGGWKLIRSLDQITVLDVQRALVEGQMLPAPLSKDHPNCPVERASNAVLERAHCLAEAALRTAYSETTLAQIAETAVATK | not soluble
